From the supplement of paper PMC10126150
± gives the standard deviation of the averaged measurements.

Test system: ATP
Assay: switch fluorescence ratio, 500 uM ATP over buffer (Cy3 cluster intensity, sum of 5 cycles each) (fold (ratio)); higher = stronger signal-on switching upon ATP binding; sequences stand for … in TCGTCGGCAGCGTCAGATGTGTATAAGAGACAGTTTTTTTTTTTTTTTTTTTTTTTTT…TC
Details: aptamer strand: ATP DNA aptamer (quencher-CACCTGGGGGAGTATTGCGGAGGAAGG + anchor), 100 nM annealed; ATP concentration: 500 uM
Procedure, shortened: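 Cy3-labelled switching-strand clusters on a modified Illumina MiSeq flow-cell were annealed to 100 nM quencher-labelled ATP aptamer and imaged first in selection buffer, then after 15 min with 500 uM ATP at 22 °C. NaOH stripping and re-annealing separated each of five buffer/ATP cycles, and clusters outside 100-1000 RFU were excluded. The fluorescence ratio sums target-cycle Cy3 intensity over buffer-cycle Cy3 intensity per cluster and averages it per switch-domain sequence.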
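Further: ATP exposure 15 min at 22 °C before imaging.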

Sequence | switch fluorescence ratio
TCGTTAGAAT | 0.948 ± 0.013
TCGTTATATT | 0.98 ± 0.015
TCGTTCAGTA | 0.958 ± 0.014
TCGTTCGGCA | 1.06 ± 0.032
TCGTTCTTTT | 0.966 ± 0.019
TCGTTGAATG | 0.956 ± 0.014
TCGTTGGCAA | 2.3 ± 0.23
TCGTTGTGCT | 0.964 ± 0.027
TCGTTTTACT | 1.34 ± 0.44
TCGTTTTGCG | 0.9977 ± 0.0086
TCTAACCTGG | 1.006 ± 0.0042
TCTAAGGGA | 1.01 ± 0.018
TCTAATTACA | 1.04 ± 0.073
TCTACGGGAT | 2.54 ± 0.2
TCTACTAT | 1.06 ± 0.031
TCTACTTTAC | 1.39 ± 0.15
TCTAGAGGGT | 1.01 ± 0.028
TCTAGCAGTT | 1.048 ± 0.0014
TCTAGCCCTG | 1.06 ± 0.073
TCTAGCCGCG | 1.016 ± 0.0044
TCTAGGGCGC | 1.01 ± 0.053
TCTAGTTAAA | 0.986 ± 0.0074
TCTATAATCG | 0.977 ± 0.034

Sequence | switch fluorescence ratio
TCTATACCAC | 1.06 ± 0.014
TCTATGCATG | 1.04 ± 0.029
TCTATGCTTC | 1.9 ± 1.1
TCTATGTTAT | 0.999 ± 0.027
TCTATTATTG | 0.98 ± 0.011
TCTATTGGCT | 1.016 ± 0.0049
TCTATTGGGA | 0.981 ± 0.028
TCTATTTGTG | 0.966 ± 0.02
TCTCAAGGCG | 1.03 ± 0.0089
TCTCAAGTGC | 1.118 ± 0.0083
TCTCAGTGTT | 1.028 ± 0.0064
TCTCATAGTA | 0.997 ± 0.047
TCTCATCGGG | 1.014 ± 0.0037
TCTCATTACG | 1.012 ± 0.0094
TCTCCAGGGG | 2.3 ± 2.1
TCTCCTGGGA | 1.03 ± 0.018
TCTCGCCGGG | 1.02 ± 0.031
TCTCGGGGGG | 1.02 ± 0.065
TCTCGTACCT | 1.19 ± 0.12
TCTCTTTCTG | 0.9729 ± 0.0073
TCTGAAAACT | 1.06 ± 0.0013
TCTGAAATAA | 1.08 ± 0.048
TCTGAACAGG | 1.03 ± 0.014

Sequence | switch fluorescence ratio
TCTGAACGGG | 1.02 ± 0.011
TCTGAGGTAT | 1.03 ± 0.034
TCTGAGGTGC | 1.06 ± 0.046
TCTGATGCGT | 1.03 ± 0.0038
TCTGATTATA | 0.987 ± 0.024
TCTGATTGTG | 0.972 ± 0.047
TCTGCACATT | 1.07 ± 0.025
TCTGCTTTTG | 1.05 ± 0.02
TCTGGAAGGT | 1.04 ± 0.053
TCTGGATAGG | 0.9625 ± 0.0058
TCTGGATATT | 1.01 ± 0.025
TCTGGCAGAT | 1.01 ± 0.028
TCTGGGAGGC | 1.01 ± 0.021
TCTGGGAGGT | 0.975 ± 0.02
TCTGGGGGAA | 1.06 ± 0.15
TCTGGGTGGA | 0.994 ± 0.015
TCTGGTAATT | 1 ± 0.02
TCTGGTATGG | 0.994 ± 0.0034
TCTGGTCATG | 0.995 ± 0.014
TCTGGTGAAA | 1.02 ± 0.054
TCTGGTGACG | 1.04 ± 0.054
TCTGGTTGT | 0.992 ± 0.028
TCTGGTTGTA | 0.995 ± 0.051

Sequence | switch fluorescence ratio
TCTGTAAGAA | 1.03 ± 0.041
TCTGTAAGGG | 0.9783 ± 0.0076
TCTGTAAGGT | 0.986 ± 0.02
TCTGTCTCTG | 1.01 ± 0.014
TCTGTGGGGG | 1.01 ± 0.016
TCTGTGGGTT | 0.973 ± 0.051
TCTGTGTTGG | 0.98 ± 0.02
TCTGTTCATG | 1.001 ± 0.0081
TCTGTTGGAC | 0.997 ± 0.024
TCTTAACGGC | 1.04 ± 0.05
TCTTACGAAG | 1.27 ± 0.27
TCTTACGGCT | 1.03 ± 0.033
TCTTAGGCTG | 1.01 ± 0.018
TCTTAGGTTG | 1.028 ± 0.0062
TCTTAGTTCA | 0.9825 ± 0.0062
TCTTATGTTA | 0.989 ± 0.021
TCTTCTGGGA | 1.026 ± 0.0038
TCTTGAGGGG | 0.982 ± 0.034
TCTTGATTGT | 0.974 ± 0.017
TCTTGCTTC | 1.0084 ± 0.00091
TCTTGGCACA | 1.036 ± 0.0061
TCTTGGGGCA | 1.01 ± 0.019
TCTTGGGTTT | 0.992 ± 0.012

Sequence | switch fluorescence ratio
TCTTGGTTGA | 0.968 ± 0.02
TCTTGTCGTT | 1.019 ± 0.0077
TCTTGTGAGG | 1.04 ± 0.13
TCTTGTTTGA | 1.008 ± 0.0059
TCTTGTTTGG | 0.994 ± 0.049
TCTTTATATT | 1.02 ± 0.048
TCTTTATTAA | 0.989 ± 0.011
TCTTTCACGC | 1.09 ± 0.085
TCTTTCTGGG | 1.03 ± 0.021
TCTTTGACAG | 1.02 ± 0.015
TCTTTGACGC | 1.21 ± 0.013
TCTTTGATGA | 0.983 ± 0.051
TCTTTGGGGA | 1.04 ± 0.04
TCTTTGTCGG | 0.977 ± 0.029
TCTTTTTATA | 1.04 ± 0.017
TCTTTTTCCC | 1.01 ± 0.022
TCTTTTTGTT | 0.99 ± 0.018
TGAAAAAAAA | 0.971 ± 0.025
TGAAAAAAT | 0.977 ± 0.051
TGAAAAAATC | 0.987 ± 0.019
TGAAAACACC | 1.13 ± 0.15
TGAAAACGGG | 1.022 ± 0.0095
TGAAAATAGT | 0.965 ± 0.029

Sequence | switch fluorescence ratio
TGAAACTTGT | 1.01 ± 0.041
TGAAAGATGT | 1.01 ± 0.035
TGAAAGCACA | 1.11 ± 0.06
TGAAAGCCCG | 1.048 ± 0.0056
TGAAAGTATT | 1 ± 0.022
TGAAATAGGA | 1.01 ± 0.039
TGAAATATTC | 0.993 ± 0.019
TGAAATGATG | 0.9977 ± 0.0082
TGAAATGGCT | 0.997 ± 0.034
TGAAATTACG | 1.03 ± 0.022
TGAAATTACT | 1.05 ± 0.033
TGAACGACAG | 1.031 ± 0.0093
TGAACTGCTG | 1.017 ± 0.0049
TGAACTTGAG | 1.01 ± 0.0062
TGAAGAAAGG | 0.981 ± 0.02
TGAAGATATA | 0.99 ± 0.015
TGAAGATATT | 0.993 ± 0.023
TGAAGCATCC | 1.822 ± 0.0073
TGAAGCTGCC | 1.28 ± 0.042
TGAAGCTTTA | 1.06 ± 0.048
TGAAGGATGA | 0.9978 ± 0.0058
TGAAGGGCGT | 0.9927 ± 0.0081
TGAAGGGGAA | 1.02 ± 0.061

Sequence | switch fluorescence ratio
TGAAGGGTGA | 1.007 ± 0.0094
TGAAGGGTTG | 1.01 ± 0.026
TGAAGTATGA | 1.03 ± 0.045
TGAAGTATTT | 1 ± 0.037
TGAAGTTAGT | 0.975 ± 0.03
TGAAGTTTTA | 0.989 ± 0.025
TGAATAAAGC | 1.05 ± 0.02
TGAATACTTT | 0.996 ± 0.044
TGAATCTTGG | 1.02 ± 0.044
TGAATGGGGA | 1.01 ± 0.029
TGAATGGTCT | 1.01 ± 0.03
TGAATTTCTT | 0.986 ± 0.022
TGAATTTTAT | 0.9885 ± 0.0073
TGAATTTTGT | 0.978 ± 0.036
TGACAAAGGG | 0.988 ± 0.024
TGACACAGGA | 1.04 ± 0.024
TGACAGCCTT | 1.068 ± 0.0032
TGACAGGGGA | 1.02 ± 0.033
TGACAGTGAA | 1.01 ± 0.02
